# Results from the supplement of paper PMC7125110.
# ± gives the standard error. For some assays here: This sample holds only a part of the variants without activity.
# B1: glmS ribozyme (parent)
# chain: AUAAAAGCGCCAGAACUACAGAAAUGUAGUUGACGAGGAGGAGGUUUAUCGAAUUUUCGGCGGAUGCCUCCAAA
# What was measured:
# Details in all cases: with glucosamine-6-phosphate
# glucosamine-6-phosphate [1] = variants of: B1; experiment: kcat; higher = faster cleavage; RNA array
# In short: (§1)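 kcat and KM were obtained from weighted Michaelis–Menten fits across concentrations of kobs values. Those came from one- or two-exponential decay fits to per-tile medians normalised to baseline and to non-cleaving reference variants. The variants were barcoded ribozymes transcribed in situ by E. coli RNA polymerase on sequenced MiSeq chips and tracked through a hybridised Cy3 probe at 37 °C, with 40 μM to 10 mM glucosamine-6-phosphate in HEPES/KCl/Mg(OAc)2 buffer flowed in.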
# glucosamine-6-phosphate [2] = variants of: B1; experiment: self-cleavage kobs at 160 uM GlcN6P; higher = faster cleavage; RNA array
# In short: as §1
# glucosamine-6-phosphate [3] = variants of: B1; experiment: self-cleavage kobs at 10000 uM GlcN6P; higher = faster cleavage; RNA array
# In short: as §1
# glucosamine-6-phosphate [4] = variants of: B1; experiment: KM; higher = weaker cofactor use; RNA array
# In short: as §1
# glucosamine-6-phosphate [5] = variants of: B1; experiment: self-cleavage kobs at 640 uM GlcN6P; higher = faster cleavage; RNA array
# In short: as §1
# glucosamine-6-phosphate [6] = variants of: B1; experiment: self-cleavage kobs at 2500 uM GlcN6P; higher = faster cleavage; RNA array
# In short: as §1
# glucosamine-6-phosphate [7] = variants of: B1; experiment: self-cleavage kobs at 40 uM GlcN6P; higher = faster cleavage; RNA array
# In short: as §1
Variant,kcat (glucosamine-6-phosphate [1]) [s⁻¹],self-cleavage kobs at 160 uM GlcN6P (glucosamine-6-phosphate [2]) [s⁻¹],self-cleavage kobs at 10000 uM GlcN6P (glucosamine-6-phosphate [3]) [s⁻¹],KM (glucosamine-6-phosphate [4]) [µM],self-cleavage kobs at 640 uM GlcN6P (glucosamine-6-phosphate [5]) [s⁻¹],self-cleavage kobs at 2500 uM GlcN6P (glucosamine-6-phosphate [6]) [s⁻¹],self-cleavage kobs at 40 uM GlcN6P (glucosamine-6-phosphate [7]) [s⁻¹]
AUAAAAGCGCCAAAACUACAGAAAUGUAGUUGACGAGGAGGAGGCUUAUCGAAUUUUCGGCGGAUGCCUCCAAA [G13A U45C],3.07e-05 ± 4.9e-06,< 1e-05,2.82e-05 ± 1.3e-05,,,,
AUAAAAGCGCCAGAACUACAGAAAUGUAGUCGACGAGGAGGAGGCUUAUCGAAUUUUCGGCGGAUGCCUCCAAA [U31C U45C],0.0005 ± 0.0001,,0.000327 ± 4.5e-05,4690 ± 1600,5.17e-05 ± 1.1e-05,0.000213 ± 3.5e-05,
AUAAAAGCGCCAGAACUACAGAAAUGUAGUUGACGAGGAGGAGUUCUAUCGAAUUUUCGGCGGAUGCCUCCAAA [G44U U46C],1.46e-05 ± 1.4e-06,,,5110 ± 1200,,,
AUAAAAGCGCCAGAAGUACAGAAAUGUAGUUGACGAGGAGGAGGUGUAUCGAAUUUUCGGCGGAUGCCUCCAAA [C16G U46G],0.000671 ± 0.00023,5.87e-05 ± 2.1e-05,0.000514 ± 0.00016,,0.000167 ± 4e-05,0.000703 ± 0.00022,
AUAAAAGCGCCAGUACUACAGAAAUGUAGUUGACGAGGAGGAUGUUUAUCGAAUUUUCGGCGGAUGCCUCCAAA [A14U G43U],< 1e-05,,,,,,< 1e-05
AUAAAAGCGCCAGAACUACAGAAAUGUAGUUGACGAGGAGGAGCUUUAUCGAAGUUUCGGCGGAUGCCUCCAAA [G44C U54G],0.000124 ± 1.2e-05,,0.000118 ± 1.9e-05,1200 ± 330,4.75e-05 ± 1.2e-05,7.38e-05 ± 1.6e-05,
AUAAAAGCGCCAGAACUACAGAAAUGUAGUUGACGAGGAGGAGGUUUAUAGAAUUUUCGGGGGAUGCCUCCAAA [C50A C61G],2.25e-05 ± 7e-06,,,,,,
AUAAAAGCGCCAGAACUACAGAAAUGUAGUUGACGAGGAGGAGGUUUAUCGAAUUUUUGGCGGACGCCUCCAAA [C58U U65C],< 1e-05,,,,,< 1e-05,
AUAAAAGCGCUAGAACUACAGAAAUGUAGUUAACGAGGAGGAGGUUUAUCGAAUUUUCGGCGGAUGCCUCCAAA [C11U G32A],0.000453 ± 3.3e-05,5.04e-05 ± 2.1e-05,0.000404 ± 4.4e-05,1520 ± 290,0.00014 ± 3.1e-05,0.000239 ± 5.9e-05,
AUAAAAGCGCCAGAACUACAGAAAUGUAGUUGACGAGGAGGAGGCUUAUCGAAUUGUCGGCGGAUGCCUCCAAA [U45C U56G],0.00225 ± 0.00059,5.85e-05 ± 1.2e-05,0.00156 ± 0.00019,4840 ± 1800,0.000335 ± 4.1e-05,0.000677 ± 0.00011,
AUAAAGGCGCCAGAACUACAGAAAUGUAGUUGACGACGAGGAGGUUUAUCGAAUUUUCGGCGGAUGCCUCCAAA [A6G G37C],< 1e-05,< 1e-05,,,,,
AUAAAAGCGCCAGACAUACAGAAAUGUAGUUGACGAGGAGGAGGUUUAUCGAAUUUUCGGCGGAUGCGUCCAAA [A15C C16A C68G],2.65e-05 ± 7.2e-06,,,,,2.94e-05 ± 1.3e-05,
AUAAAAGCGCCAGAACUACAGAAAUGUAGUUGACGAGGAGGAGGUUGAUCGUAUUUUCGGCGGAUGCCUCCAAA [U47G A52U],0.000286 ± 1.4e-05,,0.000234 ± 2.6e-05,1950 ± 180,6.99e-05 ± 7.7e-06,0.000169 ± 2e-05,
AUAAAAGCGCCAGAACUACAGAAAUGUAGUUGACGAGGAGGAGGUUUGUCGAAUUUUCGGCGAAUGCCUCCAAA [A48G G63A],< 1e-05,< 1e-05,,,,,< 1e-05
AUAAAAGCGCCAGAACUACAGAAAUGUAGUUGACGAGAAGGAGGUUUAUCGAAUUUUCGGCGGAUGACUCCAAA [G38A C67A],< 1e-05,,,,,,< 1e-05
AUAAAAGCGCCAGAAGUACAGAAAUGUAGUUGACGAGGAGGAGGUUUAUCGAAUUUACGGCGGAUGCUUCCAAA [C16G U57A C68U],4.17e-05 ± 9.1e-06,,,,,5.4e-05 ± 2.1e-05,
AUAAAAGCGCCAGAACUACAGAAAUGUAGUUGACGAGGAGGAGGUUUAUCGAAUUUUUGGCGGAUGCCUGCAAA [C58U C70G],1.93e-05 ± 3.5e-06,,,,2.38e-05 ± 9.2e-06,2.22e-05 ± 1e-05,
AUAAAAGCGCCAGAACUACAGAAAUGUAGUUGACGAGGGGGAGGUUUAUCGAAUUUUCGGCGGUUGCCUCCAAA [A39G A64U],0.000215 ± 3.3e-05,,0.000168 ± 5.5e-05,3440 ± 950,3.77e-05 ± 1.6e-05,8.33e-05 ± 2.5e-05,< 1e-05
AUAAAAGCGCCAGAACUACAGAAAUGUAGUUGACGAGGAUGAGGUCUAUCGAAUUUUCGGCGGAUGCCUCCAAA [G40U U46C],0.00175 ± 0.00024,9.14e-05 ± 1.9e-05,0.00137 ± 0.00016,2420 ± 530,0.000365 ± 5e-05,0.000971 ± 0.00014,4.23e-05 ± 1.1e-05
AUAAAAGCGCCAGAACUACAGAAAUGUAUUUGACGAGGAGGAGGUUUAUCGAAUUUUCGGCGGAUGCCGCCAAA [G29U U69G],5.24e-05 ± 1.4e-05,5.79e-05 ± 1.4e-05,,,7.49e-05 ± 1.7e-05,5.06e-05 ± 1.2e-05,
AUAAAAGCGCCAAAACUACAGAAAUGUAGUUGACGAGGAGGAGGUUUAUCGAAUUUUCGGCGGAUGCCGCCAAA [G13A U69G],6.29e-05 ± 1.9e-05,4.26e-05 ± 1.5e-05,,,7.5e-05 ± 1.3e-05,6.99e-05 ± 1.7e-05,
